Consider three substances from publication PMC4954676.

Test [1] deals with rat thrombin (rat).
Test [2] deals with human thrombin (human).

“synthetic peptide containing NEP-truncated rat FpA and the first four residues of the main α-chain” displayed a fold reduction of kcat/KM of cleavage by rat thrombin, truncated rat FpA peptide against the full-length rat FpA peptide in test [1] of 5.7 fold.

For the substance “synthetic peptide containing full-length human FpA and the first four residues of the main α-chain”, in test [2], the KM of cleavage of the peptide by thrombin (fluorescence polarisation cleavage assay, Michaelis-Menten fit) amounted to 51 µM; the kcat of cleavage of the peptide by thrombin (fluorescence polarisation cleavage assay, Michaelis-Menten fit) was 9.1 s⁻¹; the kcat/KM of cleavage of the peptide by thrombin (fluorescence polarisation cleavage assay, Michaelis-Menten fit) amounted to 180000 M⁻¹ s⁻¹.

On to “synthetic peptide containing NEP-truncated human FpA and the first four residues of the main α-chain”, for which, in test [2], the KM of cleavage of the peptide by thrombin (fluorescence polarisation cleavage assay, Michaelis-Menten fit) stood at 630 µM; the fold reduction of kcat/KM of cleavage by thrombin, truncated FpA peptide against the full length peptide turned out to be 490 fold; the kcat of cleavage of the peptide by thrombin (fluorescence polarisation cleavage assay, Michaelis-Menten fit) was determined as 0.25 s⁻¹.
